Target: Kv2.1 potassium channel (UniProt Q14721)
UniProt Q14721, sequence (Q14721 whole entry): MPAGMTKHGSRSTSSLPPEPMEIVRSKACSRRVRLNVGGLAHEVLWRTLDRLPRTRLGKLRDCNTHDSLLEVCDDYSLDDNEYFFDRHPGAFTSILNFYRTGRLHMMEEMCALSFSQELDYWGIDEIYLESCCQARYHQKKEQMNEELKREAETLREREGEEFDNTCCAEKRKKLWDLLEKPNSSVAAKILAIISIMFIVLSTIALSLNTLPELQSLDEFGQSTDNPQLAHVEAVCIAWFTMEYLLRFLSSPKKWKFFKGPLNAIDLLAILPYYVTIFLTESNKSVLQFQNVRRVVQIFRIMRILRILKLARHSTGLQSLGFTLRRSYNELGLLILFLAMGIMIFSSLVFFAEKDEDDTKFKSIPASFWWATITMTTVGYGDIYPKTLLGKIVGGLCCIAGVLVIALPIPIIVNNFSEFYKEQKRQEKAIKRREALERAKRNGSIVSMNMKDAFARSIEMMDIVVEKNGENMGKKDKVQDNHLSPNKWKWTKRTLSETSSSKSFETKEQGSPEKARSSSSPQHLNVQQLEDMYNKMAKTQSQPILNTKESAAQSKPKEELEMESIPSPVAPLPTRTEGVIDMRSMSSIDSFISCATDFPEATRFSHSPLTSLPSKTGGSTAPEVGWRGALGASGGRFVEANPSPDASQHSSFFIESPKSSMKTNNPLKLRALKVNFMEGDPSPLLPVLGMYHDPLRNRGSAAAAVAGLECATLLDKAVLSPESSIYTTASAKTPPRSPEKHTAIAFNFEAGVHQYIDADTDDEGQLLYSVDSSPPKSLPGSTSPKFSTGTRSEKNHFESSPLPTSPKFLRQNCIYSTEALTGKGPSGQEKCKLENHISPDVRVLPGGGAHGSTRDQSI

In the case of “MiDCA1, a phospholipase A2 (PLA2) neurotoxin from Micrurus dumerilii carinicauda coral snake venom (enzyme)”, the inhibition of Kv2.1-mediated current in Xenopus oocytes by 1 μM MiDCA1 (reversible on washout) is reported as 55%.
